Experimental data reported in PMC4184033 (Nature structural & molecular biology, 2011).

T1: Mcm2 (Drosophila melanogaster, UniProt P49735 1-887)
T1 sequence (looked up): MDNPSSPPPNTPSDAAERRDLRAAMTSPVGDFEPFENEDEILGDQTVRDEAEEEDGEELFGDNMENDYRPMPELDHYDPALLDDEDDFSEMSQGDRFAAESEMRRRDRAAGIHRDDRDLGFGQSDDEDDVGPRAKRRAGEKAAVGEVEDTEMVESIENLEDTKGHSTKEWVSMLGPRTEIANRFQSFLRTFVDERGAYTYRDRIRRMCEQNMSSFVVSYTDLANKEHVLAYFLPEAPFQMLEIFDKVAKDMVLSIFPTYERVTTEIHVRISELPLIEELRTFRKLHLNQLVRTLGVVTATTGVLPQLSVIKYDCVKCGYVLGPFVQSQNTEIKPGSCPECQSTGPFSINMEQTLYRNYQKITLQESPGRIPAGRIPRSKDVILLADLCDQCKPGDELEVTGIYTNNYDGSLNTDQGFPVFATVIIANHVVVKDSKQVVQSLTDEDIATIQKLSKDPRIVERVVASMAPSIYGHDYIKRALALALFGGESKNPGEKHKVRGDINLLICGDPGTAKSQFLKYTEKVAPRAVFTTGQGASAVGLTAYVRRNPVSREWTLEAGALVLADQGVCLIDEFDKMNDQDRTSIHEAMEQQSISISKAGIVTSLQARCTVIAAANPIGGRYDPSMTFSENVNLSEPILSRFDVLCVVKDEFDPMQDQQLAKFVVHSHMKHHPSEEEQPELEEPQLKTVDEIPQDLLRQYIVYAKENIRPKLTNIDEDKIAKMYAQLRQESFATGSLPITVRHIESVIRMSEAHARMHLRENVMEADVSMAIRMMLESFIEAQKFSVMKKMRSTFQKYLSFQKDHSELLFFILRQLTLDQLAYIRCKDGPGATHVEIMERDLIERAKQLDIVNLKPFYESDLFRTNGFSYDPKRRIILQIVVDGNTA

T2: Mcm5 (Drosophila melanogaster, UniProt Q9VGW6 1-733)
T2 sequence (looked up): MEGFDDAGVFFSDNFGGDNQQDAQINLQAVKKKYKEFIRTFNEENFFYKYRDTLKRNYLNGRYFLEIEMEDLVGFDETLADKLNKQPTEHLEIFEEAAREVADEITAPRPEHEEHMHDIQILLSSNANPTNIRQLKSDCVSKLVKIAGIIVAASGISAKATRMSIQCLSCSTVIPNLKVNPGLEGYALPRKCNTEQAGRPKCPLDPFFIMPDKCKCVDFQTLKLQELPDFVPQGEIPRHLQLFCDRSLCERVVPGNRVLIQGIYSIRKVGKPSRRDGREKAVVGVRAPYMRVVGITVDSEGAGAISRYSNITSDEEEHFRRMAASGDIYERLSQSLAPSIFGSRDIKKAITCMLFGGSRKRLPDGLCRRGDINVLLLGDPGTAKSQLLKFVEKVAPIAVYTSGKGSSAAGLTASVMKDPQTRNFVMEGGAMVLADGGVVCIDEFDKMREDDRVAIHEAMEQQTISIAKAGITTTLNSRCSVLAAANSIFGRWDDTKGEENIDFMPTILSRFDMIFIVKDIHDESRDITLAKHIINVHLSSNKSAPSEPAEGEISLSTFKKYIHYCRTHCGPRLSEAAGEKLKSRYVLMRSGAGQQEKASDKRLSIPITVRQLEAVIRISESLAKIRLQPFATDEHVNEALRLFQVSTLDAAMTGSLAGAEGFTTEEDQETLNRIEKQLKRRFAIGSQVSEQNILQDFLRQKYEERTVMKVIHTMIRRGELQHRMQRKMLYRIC

B1: Cdc45 (natural protein, Drosophila melanogaster, UniProt O96989 1-575, looked up)
chain: MFVQDLRNDFYRQLVGKRILIVVNYDIDAICASRILQALFKYDHMLYTVVPIMGVTGLKRAYGEHQGDVKYVVLVNCGGCVDIVELLQPSDDVTFFICDSHRPLDVCNIYSDRQVCILGDASLEENIPAFETIFYDSEGEDEDEDESSDTEQQHDDSGAGESDQEDQAPRSRKLSRLERHEQRILKQRARRQWESERDRIMFEYTQFSYYGRSAALMVFELAWKLSKDNMDLLWWAIVGITEQLLLGKIESGAYTLELEQIQSHVSRLTNKTNDQNTMSASKITFENDLHLVLYRHWPVTESMRYSRYSSCQLKLWTLRGEKRLHELLLEMGLPLVHARQTYGAMDLVLRKEFFSMVERLAEKYDIADIVYGTFTLSYGYRSRYAAADYVYALLAIMESVKKHKTPEDCFLEASDALSRQHKQLLSAGIDQAKLLHAAVFRQVQSSLEARQVHSAGSFFYYVLQEEHAFFSYPYALGLLARFLLRGHVATSRARQASDLPLIASCPLNASEGMCLLVGIVPVREDSPRNFFGKAFEQAAQKSGVALLQDFFEPAVVQLRQSDLTRFLDSLTVLLA
B2: Psf2 (natural protein, Drosophila melanogaster, UniProt Q9VQY9 1-203, looked up)
chain: MDPSIIEFIGEKCMISIIPNFSNEPLHLIYGPVGPFRAGFPVFVPLWMATHLRKQQKCRIVPPEWMDMDILEEIKEEEKRSKFFTKMPCEHYMVVAQLVMSTAPDDVPRCEELRTVIKDIFDIRESKLRTSIDAFIKGEGTYAKLDNLTLLEIHSVRPILPYSLDHIARYQRTATASQRDTSMLSASMAGSSSGPNSNSLFSQ

What was measured:
Test in all cases: negative-stain single-particle EM
Mcm2 = biological target: T1, Mcm2
Mcm5 = biological target: T2, Mcm5
Cdc45 = biological target: B1

| binding result (Mcm2) | binding result (Mcm5) | binding result (Cdc45) | Binder |
| --- | --- | --- | --- |
| binds | – | – | B1 |
| – | binds | binds | B2 |
